*1 amine or outer side, *2 acyl side, *3 side chain or, on linkers, in order; H or OH if unused. Where no end group is shown, it is not given here. [ ]: non-standard residue; d: D form. 3‑pTza = 3-phosphoryltriazolylalanine, non-hydrolysable phosphonate triazole analogue of 3-phosphohistidine, O=C([C@H](Cn1cc(P(=O)(O)O)nn1)N[*:1])[*:2]; pY = N[C@@H](Cc1ccc(OP(=O)(O)O)cc1)C(=O)O
Columns and labels:
[1] = target: T1, Eck (Ephrin A2) pY588 peptide (CLKPLKTpYVD); assay: pTyr peptide dot blot
T1 construct: also called Eck/EphA2 pTyr peptide
T1 peptide: CLKPLKT[pY]VD

[2] = target: T2, Eck (Ephrin A2) Y588 peptide (CLKPLKTYVD); assay: pTyr peptide dot blot
T2 construct: also called unphosphorylated Eck peptide
T2 peptide: CLKPLKTYVD

[3] = target: T3, Nck pY105 peptide (CGERLpYDLNMPAYVK); assay: pTyr peptide dot blot
T3 construct: also called pTyr (NCK) peptide; pTyr peptide (Nck pY105)
T3 peptide: CGERL[pY]DLNMPAYVK

[4] = target: T4, FAK pY397 peptide (AVSVSETDDpYAEIIDEEDTYT) (phosphotyrosine at position 10 (pY397)); assay: pTyr peptide dot blot
T4 construct: also called FAK pTyr peptide
T4 peptide: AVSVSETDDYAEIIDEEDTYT

[5] = target: T5, Nck Y105 peptide (CGERLYDLNMPAYVK); assay: pTyr peptide dot blot
T5 construct: also called unphosphorylated Nck peptide
T5 peptide: CGERLYDLNMPAYVK

[6] = target: T6, phospho-PGAM (phosphoglycerate mutase with 3-pHis on H11) (human, UniProt P18669 1-254, 3-phosphohistidine at H11); assay: immunoblot of HeLa and FLAG-NME1 293 cell lysates
T6 construct: Used both for the purified recombinant protein and for the endogenous protein in 293 cell lysates; also called pPGAM; in vitro phosphorylated PGAM
Method: FIGS. 6A-6E. 3-pHis Antibody Screening. (FIG. 6A) High throughput, slot blot screening of 3-pHis hybridoma subclones. Cell supernatants containing 3-pHis mAbs were screened as described using lysates from E. coli transformed with GST-PGAM. (FIG. 6B) Representative immunoblots using indicated subclones are shown. E. coli lysates identical to those used in ([…]) were treated with and without heating to 95° C. for 10 min to determine if the detected bands were heat-sensitive. Bacterial (FIG. 6B) and mammalian SCS (FIG. 6C) is detected by 3-pHis mAb SC44-8. (FIG. 6C) Mammalian cell lysates from HeLa and FLAG-NME1 293 cells were probed with mAb SC44-8. Phospho-SCS and ACLY, but not PGAM, is recognized by this mAb. (FIG. 6D) SCS H299 (SEQ ID NO: 69) is aligned with ACLY H760 (SEQ ID NO: 68) to highlight amino acids the flanking the pHis site are identical and have a G-pH-A-H-A motif that is different from the pHis site on PGAM at H11 (SEQ ID NO:70). […]
Immunoblotting with anti-pHis antibodies: In general, immunoblotting with anti-pHis antibodies was performed with modifications to standard procedures to help preserve pHis for detection. […] Lysates were clarified by centrifugation (14,000×g for 5-15 min at 4° C.) and analyzed immediately using freshly prepared Bis-Tris polyacrylamide minigels with a modified, pH 8.8 stacking gel and either 10% or 12.5% resolving gels.

[7] = target: T7, mammalian SCS (succinyl-CoA synthetase), 3-pHis on H299 (mammalian, UniProt P53597 41-346, 3-phosphohistidine at H299); assay: immunoblot of mammalian cell lysates
T7 construct: also called Phospho-SCS
Method: (§1) Immunoblotting with anti-pHis antibodies: In general, immunoblotting with anti-pHis antibodies was performed with modifications to standard procedures to help preserve pHis for detection. Buffers were adjusted to pH 8-9 to stabilize pHis and methods were modified to avoid heating samples. Protein samples were prepared in pH 8.8 sample buffer (5×=10% SDS, 250 mM Tris-HCl, pH 8.8, 0.02% Bromophenol blue, 50% glycerol, 50 mM EDTA, 500 mM DTT) for electrophoresis. Mammalian whole cell lysates were prepared by rinsing 70-100% confluent 10 cm² dishes twice with 5 ml cold TD buffer (TBS −/−, pH 8). Cells were scraped directly into 2× pH 8.8 sample buffer, incubated on ice and a cup horn sonicator was used (3-5×5 sec bursts) to disrupt cells and shear DNA. Lysates were clarified by centrifugation (14,000×g for 5-15 min at 4° C.) and analyzed immediately using freshly prepared Bis-Tris polyacrylamide minigels with a modified, pH 8.8 stacking gel and either 10% or 12.5% resolving gels. Electrophoresis buffer recipes were as follows: Running Buffer: (1×20 L, pH 8.5) 20 g SDS, 60 g Trizma Base, 288 g glycine, dH₂0 to 20 L, Transfer Buffer: (1×4 L, pH 8.5) 56.7 g glycine, 4 g SDS, 12 g Trizma Base, 800 ml MeOH, dH₂0 to 4 L. All electrophoresis steps were performed at 4° C. and samples were resolved at 90-100V for 2-3 hr. […]

[8] = target: T8, ACLY (ATP-citrate lyase), 3-pHis on H760 (mammalian, UniProt P53396 1-1101, 3-phosphohistidine at H760); assay: immunoblot of mammalian cell lysates
T8 sequence (looked up): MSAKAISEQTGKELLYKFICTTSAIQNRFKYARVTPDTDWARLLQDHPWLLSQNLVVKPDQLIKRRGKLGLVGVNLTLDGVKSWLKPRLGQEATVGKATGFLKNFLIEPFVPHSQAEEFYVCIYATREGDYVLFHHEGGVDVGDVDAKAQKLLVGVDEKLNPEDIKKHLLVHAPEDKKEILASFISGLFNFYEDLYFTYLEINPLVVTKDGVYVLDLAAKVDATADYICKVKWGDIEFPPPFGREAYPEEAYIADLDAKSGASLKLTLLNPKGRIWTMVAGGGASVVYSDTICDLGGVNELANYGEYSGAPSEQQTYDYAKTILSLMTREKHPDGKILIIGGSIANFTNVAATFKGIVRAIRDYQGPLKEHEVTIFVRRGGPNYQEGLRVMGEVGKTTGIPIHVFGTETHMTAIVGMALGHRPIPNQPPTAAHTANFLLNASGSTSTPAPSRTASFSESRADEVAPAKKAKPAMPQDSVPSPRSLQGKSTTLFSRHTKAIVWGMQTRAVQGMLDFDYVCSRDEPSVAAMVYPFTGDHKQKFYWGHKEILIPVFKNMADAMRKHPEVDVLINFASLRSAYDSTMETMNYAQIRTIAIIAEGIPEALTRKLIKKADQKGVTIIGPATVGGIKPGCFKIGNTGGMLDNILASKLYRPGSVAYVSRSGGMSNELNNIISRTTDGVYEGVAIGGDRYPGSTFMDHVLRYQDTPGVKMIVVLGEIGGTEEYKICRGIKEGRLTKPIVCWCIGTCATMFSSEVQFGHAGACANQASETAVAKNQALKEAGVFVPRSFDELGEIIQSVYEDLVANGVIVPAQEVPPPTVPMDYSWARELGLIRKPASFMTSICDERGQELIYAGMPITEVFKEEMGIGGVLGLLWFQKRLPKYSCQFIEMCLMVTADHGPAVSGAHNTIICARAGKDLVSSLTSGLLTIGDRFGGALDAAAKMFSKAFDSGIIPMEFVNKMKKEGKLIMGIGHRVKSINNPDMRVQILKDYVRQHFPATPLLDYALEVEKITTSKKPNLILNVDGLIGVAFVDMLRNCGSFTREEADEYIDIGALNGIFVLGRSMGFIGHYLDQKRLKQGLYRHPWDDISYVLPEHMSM
Method: as §1

[9] = target: T9, Peptide-1C (ACLY-like H760, 3-pTza) (N-terminus assumed; SMILES C[C@H](N)C(=O)NCC(=O)N[C@@H](C)C(=O)NCC(=O)N[C@@H](Cn1cc(P(=O)(O)O)nn1)C(=O)N[C@@H](C)C(=O)NCC(=O)N[C@@H](C)C(=O)NCC(N)=O); assay: 3-pTza peptide dot blot array
T9 construct: also called AGAG-3-pTza-AGAG; A/G motif peptide (based on ACLY)
T9 peptide: AGAG[3‑pTza]AGAG-NH2
Method: (§2) The 3-pHis antibodies bound only the 3-pTza peptides and the 1-pHis antibodies bound only the 1-pTza peptides, regardless of sequence (FIG. 4A). Identical membranes were probed with 1-pHis mAbs as part of our screening process to select mAbs with the broadest sequence recognition (FIG. 4B). […] 3-pHis mAb SC39-4 was able to detect all 3-pTza peptides down to 800 pg; however, binding to the KCa3.1 peptide was relatively poor (100 ng). […] SC44 detected the A/G motif peptide (based on ACLY) and the immunizing peptide library down to 160 pg and 800 pg respectively, confirming its sequence bias.
(§3) pTza peptide dot blot arrays: 1-pTza, 3-pTza or His was incorporated into synthetic peptides of defined sequences from mammalian proteins with mapped pHis sites. The peptides used were as follows: ACLY-like H760 (AGAG-X-AGAG, SEQ ID NO: 62), PGAM H11 (VLIR-X-GESA, SEQ ID NO: 63), NME1 H118 (RNII-X-GSDS, SEQ ID NO: 64), Histone H4 H18 (GAKR-X-RKVL, SEQ ID NO: 65), KCa3.1 H358 (VRLK-X-RKLR, SEQ ID NO: 66) and GNB1 H266 (MTYS-X-DNII, SEQ ID NO: 67) where X=His, 1-pTza or 3-pTza. Peptides were dissolved in water at a stock concentration of 1 mg/ml. 1:5 serial dilutions (500, 100, 20, […] ng/ul) were prepared for each peptide and 1 ul of each dilution was spotted on nitrocellulose membrane and allowed to dry for 1-2 hr at RT. […] Immunoblotting was performed as described above.

[10] = target: T10, Peptide-2C (PGAM H11, 3-pTza) (mammalian, N-terminus assumed; SMILES …); assay: 3-pTza peptide dot blot array
T10 construct: also called VLIR-3-pTza-GESA; PGAM peptide
T10 peptide: VLIR[3‑pTza]GESA-NH2
Method: as §2, §3

[11] = target: T11, Peptide-4C (Histone H4 H18, 3-pTza) (mammalian, N-terminus assumed; SMILES …); assay: 3-pTza peptide dot blot array
T11 construct: also called GAKR-3-pTza-RKVL
T11 peptide: GAKR[3‑pTza]RKVL-NH2
Method: as §2, §3

[12] = target: T12, Peptide-3C (NME1 H118, 3-pTza) (mammalian, N-terminus assumed; SMILES …); assay: 3-pTza peptide dot blot array
T12 construct: also called RNII-3-pTza-GSDS
T12 peptide: RNII[3‑pTza]GSDS-NH2
Method: as §2, §3

T7 sequence (P53597 41-346): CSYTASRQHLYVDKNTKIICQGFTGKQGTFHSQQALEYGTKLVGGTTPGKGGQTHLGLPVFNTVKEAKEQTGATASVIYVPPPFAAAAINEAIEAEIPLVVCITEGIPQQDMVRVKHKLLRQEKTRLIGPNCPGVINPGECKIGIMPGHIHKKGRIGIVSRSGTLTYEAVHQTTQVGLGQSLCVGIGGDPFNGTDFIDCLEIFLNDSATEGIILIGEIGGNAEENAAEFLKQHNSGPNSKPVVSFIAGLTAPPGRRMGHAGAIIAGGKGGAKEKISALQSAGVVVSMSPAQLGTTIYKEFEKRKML
T6 sequence (P18669 whole entry): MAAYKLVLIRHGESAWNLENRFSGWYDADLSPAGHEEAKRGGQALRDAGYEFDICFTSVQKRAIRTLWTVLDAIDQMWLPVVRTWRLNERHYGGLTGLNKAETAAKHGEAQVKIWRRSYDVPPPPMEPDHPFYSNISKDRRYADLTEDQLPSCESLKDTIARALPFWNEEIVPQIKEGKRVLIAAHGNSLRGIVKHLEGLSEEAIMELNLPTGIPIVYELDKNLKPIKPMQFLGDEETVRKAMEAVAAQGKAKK

B1: 3-pHis mAb SC44-8 (antibody, V domains shown)
VH: ESGRGLVQPGGSLTLTCTASGFSIDSYGFSWVRQAPGKGLEHIGYLTAGGRAFYASWAKSRSTITRNTNENTVTLKMTSLTAADTATYFCAKLGSGNPVAIWGPGTLVTVSS
VL: DPVMTPTPSFTSAAVGGTVTINCQSSQSVWRNKNLAWYQQKPGQPPKRLIYAIATLDSGVPSRFSGSGSGTQFTLTISDVQCDDAATYYCVGHYGSENDAYYAFGGGTEVVVKG
notes: Rabbit hybridoma monoclonal IgG; also called SC44s (subclones of MC44)
binding result [1]: no binding | binding result [2]: no binding | binding result [3]: no binding | binding result [4]: no binding | binding result [5]: no binding | binding result [6]: no binding | binding result [7]: binds | binding result [8]: binds

B2: 3-pHis mAb SC56-2 (antibody, V domains shown)
VH: SVKESEGGLIKPGGILTLTCTASGFSLSSYGFSWVRQAPGKGLEHIGYLHANGRAYYATWAKSRSTITRNTNLNTVTLQLTSLTAADTATYFCAKIGSVSDVAIWGPGTLVTVSS
VL: DPVMTQTPSSTSAAVGGTVTINCQSSESIYNNKNLAWYQQKPGQSPRRLIYSISTLASGVSSRFKGSGSGTQFTLTISDVQCDDAATYYCVGYYYSGGYYYSGSAAYYAFGGGTEVVVKG
notes: Rabbit hybridoma monoclonal IgG; also called SC56s (subclones of MC56)
binding result [1]: no binding | binding result [2]: no binding | binding result [3]: no binding | binding result [4]: no binding | binding result [5]: no binding | binding result [9]: binds | binding result [10]: binds | binding result [11]: binds | binding result [12]: binds

From US20170210824A1 (SALK INSTITUTE FOR BIOLOGICAL STUDIES, published 2017)
